Columns and labels:
[1] = substrate: Brc1ccc2cc[nH]c2c1; test: Tyrian purple formation by LC-MS; assay type: biochemical, Methylophaga thalassica; details: pH 7.5, 30 °C, 250 μM NADH, 0.6% glucose with GDH recycling, unit μm [sic], meant μM, table title says NADH oxidation, methods say indigo/Tyrian purple formation
Excerpt: Tyrian purple formation by LC-MS on MaFMO

[2] = substrate: c1ccc2[nH]ccc2c1; test: indigo formation by LC-MS; assay type: biochemical, Methylophaga thalassica; details: pH 7.5, 30 °C, 250 μM NADH, 0.6% glucose with GDH recycling, unit μm [sic], meant μM, table title says NADH oxidation, methods say indigo/Tyrian purple formation
Excerpt: indigo formation by LC-MS on MaFMO

B1: MaFMO (Methylophaga thalassica) (protein)
chain: MATRIAILGAGPSGMAQLRAFQSAQEKGAEIPELVCFEKQADWGGQWNYTWRTGLDENGEPVHSSMYRYLWSNGPKECLEFADYTFDEHFGKPIASYPPREVLWDYIKGRVEKAGVRKYIRFNTAVRHVEFNEDSQTFTVTVQDHTTDTIYSEEFDYVVCCTGHFSTPYVPEFEGFEKFGGRILHAHDFRDALEFKDKTVLLVGSSYSAEDIGSQCYKYGAKKLISCYRTAPMGYKWPENWDERPNLVRVDTENAYFADGSSEKVDAIILCTGYIHHFPFLNDDLRLVTNNRLWPLNLYKGVVWEDNPKFFYIGMQDQWYSFNMFDAQAWYARDVIMGRLPLPSKEEMKADSMAWREKELTLVTAEEMYTYQGDYIQNLIDMTDYPSFDIPATNKTFLEWKHHKKENIMTFRDHSYRSLMTGTMAPKHHTPWIDALDDSLEAYLSDKSEIPVAKEA
notes: synthesized gene, His-tag, E. coli BL21(DE3), Ni-NTA; primers give start MATRIAI, end VAKEA
- Km [1]: 303.65 µM
- kcat [1]: 0.000521 s⁻¹
- kcat/Km [1]: 1.67 M⁻¹ s⁻¹
- Km [2]: 242.2 µM
- kcat [2]: 0.000246 s⁻¹
- kcat/Km [2]: 1 M⁻¹ s⁻¹

Source: PMC9871250, “Identification of an indole biodegradation gene cluster from Providencia rettgeri and its contribution in selectively biosynthesizing Tyrian purple” (Frontiers in Bioengineering and Biotechnology, 2023)
